Measurements reported in paper PMC4888784.

Target: PIN1 (UniProt Q13526)
Assay: His-tagged peptide binding to GST-PIN1
Conditions: reference: nonphosphorylated S203/P204 peptide; sites S203

PGK1 (phosphoglycerate kinase 1) oligopeptide containing S203/P204, borders not given (from UniProt P00558) pS203/P204 peptide
binding against the reference: stronger
